# Data taken from US20230093169A1, “COMBINATIONS OF ANTIBODY CONSTRUCTS AND INHIBITORS OF CYTOKINE RELEASE SYNDROME AND USES THEREOF” (AMGEN RESEARCH (MUNCH) GMBH, priority 2020, published 2023).
# Assays:
# [1] = biological target: T1, TNF-α (Homo sapiens, UniProt P01375); experiment: Etanercept prophylaxis for PSMA-targeting BiTE-related CRS in humans; assay type: in vivo
# T1 construct: endogenous in cells; host or cells: human subjects (clinical cohort), in vivo
# Protocol: Etanercept premedication occurred within two days before BiTE administration to assess whether prophylaxis with the TNF-α inhibitor decreases the frequency and severity of CRS without compromising the efficacy of the BiTE. In an initial cohort of 6 to 8 subjects, the PSMA-targeting BiTE is administered. In addition to dexamethasone prophylaxis, subjects in the cohort received prophylaxis with etanercept (50 mg subcutaneously [SC]) two days prior to each dose of PSMA-targeting BiTE in the first administration cycle.
# Subject incidence of safety events, including dose-limiting toxicities (DLTs), serious adverse events (SAEs), and adverse events leading to treatment discontinuation or dose reduction, will be reviewed when at least 3 DLT-evaluable subjects complete the DLT window. Subjects receiving three individual increasing doses of PSMA-targeting BiTE with etanercept prophylaxis experienced 1 DLT/SAE (grade 3 (G3) thrombocytopenia), 1 SAE (Grade 3 (G3) Afib), 0 dose reductions, 1 discontinuation (tolerability), CRS events in cycle 1: 4 grade 2 (G2), no grade 3/4 (G3/4). […] In the latter group 1 DLT/SAE (G3 Hypoacusis), 2 SAE (grade 3 (G3) Pruritus, grade 2/3 (G2/G3) CRS), 2 dose reductions, 2 discontinuations (disease progression), and CRS events in cycle 1: 4 grade 1 (G1), 7 grade 2 (G2), 4 grade 3 (G3) were observed. In the etanercept prophylaxis group the PSMA-targeting BiTE was administered at the same dosages and frequency as in the group without etanercept prophylaxis.
# [2] = test system: MCP-1 release in HUVEC co-cultured with CD19-expressing NALM-6 cells and human PBMC; experiment: BiTE-induced MCP-1 release in co-culture of HUVEC, NALM-6 cells and human PBMC, with or without etanercept; assay type: cell-based; conditions: HUVEC + NALM-6 + human PBMC; after 2 and 5 hours
# Description: FIG. 6. AMG 103-mediated MCP-1 Secretion: MCP-1 concentrations in cell culture supernatants were quantified by the BD Cytometric CBA human MCP-1 Flex Set. Error bars in both graphs indicate the standard error of the mean of duplicate measurements.
# Human umbilical vein endothelial cells (HUVEC) were co-cultured with CD19-expressing NALM-6 cells and human PBMC and increasing concentrations of BiTE® antibody construct blinatumomab (AMG 103) against CD19 in the absence or presence of etanercept. MCP-1 concentrations were determined with the BD Cytometric CBA human MCP-1 Flex set system (BD, Germany after 2 and 5 hours, respectively according to the manufacturer's instructions and are shown in FIG. 6.
# [3] = test system: VCAM-1 expression on CD31+HUVEC; experiment: Blinatumumab VCAM assay: VCAM-1 on CD31+ HUVEC in co-cultures with T cells and NALM-6; assay type: cell-based, human; conditions: isolated T cells and NALM-6
# Protocol: FIG. 7. VCAM-1 Expression on HUVEC in AMG 103 Co-culture Assays: VCAM-1 expression by flow cytometry. […] expression levels are expressed as Median Fluorescence Intensity (MFI). VCAM-1 expressing HUVEC are expressed as percentage of CD31+HUVEC. Error bars indicate the standard error of the mean of duplicate measurements. Two PBMC donors were used in this experiment.
# The effect of blinatumomab (AMG 103) on T cell activation and the induction of VCAM-1 on endothelial cells was analyzed in co-cultures of HUVEC, isolated T cells and CD19-expressing NALM-6 target cells. VCAM-1 expression on CD31+HUVEC was analyzed by flow cytometry.
# [4] = cited from earlier work
# [5] = subjects on PSMA-targeting BiTE with prophylaxis
# T1 sequence (P01375 77-233 limits assumed): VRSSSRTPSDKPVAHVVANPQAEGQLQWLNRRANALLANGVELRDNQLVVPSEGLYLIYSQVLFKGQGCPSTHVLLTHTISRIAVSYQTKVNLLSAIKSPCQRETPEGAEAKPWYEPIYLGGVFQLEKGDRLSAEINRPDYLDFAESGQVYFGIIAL
substance,measurement,setting,value
"tocilizumab: monoclonal antibody that competes with the binding of IL-6 to its receptor, IL-6R","CRS events in cycle 1, grade 1 (G1)",[1]; in vivo,4
same,"CRS events in cycle 1, grade 2 (G2)",[1]; in vivo,7
same,"CRS events in cycle 1, grade 3 (G3)",[1]; in vivo,4
same,SAE,[1]; in vivo,2
same,discontinuations,[1]; in vivo,2
same,dose reductions,[1]; in vivo,2
etanercept,CRS safety profile compared with no premedication or premedication with tocilizumab,[1]; PSMA-targeting BiTE at same dosages and frequency,improves CRS safety profile
same,"CRS events in cycle 1, grade 2 (G2)",[1]; [5],4
same,"CRS events in cycle 1, grade 3/4 (G3/4)",[1]; [5],no grade 3/4
same,SAE,[1]; [5],1
same,discontinuations,[1]; [5],1
same,dose reductions,[1]; [5],0
same,DLT/SAE,[1]; subjects on PSMA-targeting BiTE with prophylaxis (etanercept 50 mg SC two days prior; tocilizumab 8 mg/kg two hours before first dose),1
same,effect on BiTE molecule (AMG 103) induced MCP-1 release,[2],Blocked
same,sensitivity of AMG 103-induced VCAM-1 up-regulation to TNF blockade,[3],sensitive
same,half-life,[4]; mean±SD,102 ± 30 h
same,"time of maximum concentration [tmax], mean±SD","[4]; subcutaneous, slow absorption",69 ± 34 h
AMG 103: BiTE® antibody construct against CD19,VCAM-1 expression on CD31+HUVEC,"[3]; co-cultures of HUVEC, flow cytometry",up-regulated
